One sequence from paper PMC9638898 can be followed below.

The data set deals with en-10C-R4 (engrailed homeodomain-ligase 10C-tetra-arginine) (artificial fusion). The data set is described as follows: fluorescence anisotropy. Particulars: 20 mM HEPES pH 7.5, 150 mM NaCl, 100 uM 2-mercaptoethanol, 120 uM ZnCl2, 100 ug/ml BSA, 24 C, 90 min. A general note: Fluorescence polarisation rises when a labelled molecule tumbles more slowly, as on binding a larger partner.

For the sequence “GUUCAGAGUUCUACAGUCACUAACGUUCGGGGAACCCAGGUGUUGGUCUUUGACGUAGAGUAUAAGA / TGGGTTCCCCGAACGT [RNA/DNA duplex (ligated product RNA + FAM-DNA splint #2)]”, the Kd (usually the constant that tells how readily two partners part at equilibrium) came to 460 nM. That is a sub-micromolar value.
